Results taken from article PMC10512374, “Characterization and Phylogenetic Analysis of a Novel GH43 β-Xylosidase From Neocallimastix californiae” (Frontiers in Fungal Biology, 2021).

Columns and labels:
[1] = molecular target: T1, Xyl43Nc (Neocallimastix californiae, UniProt A0A1Y2A0L6); test: product inhibition of 4-nitrophenyl xyloside hydrolysis, […] nm, curve fit; assay type: biochemical; details: competitive, xylose 0-10 mM, substrate 4-nitrophenol-xylopyranoside 0.25-7.5 mM
T1 construct: E. coli BL21 pLysS (DE3); HisTrap and Sephacryl S-200
T1 sequence (A0A1Y2A0L6 1-326): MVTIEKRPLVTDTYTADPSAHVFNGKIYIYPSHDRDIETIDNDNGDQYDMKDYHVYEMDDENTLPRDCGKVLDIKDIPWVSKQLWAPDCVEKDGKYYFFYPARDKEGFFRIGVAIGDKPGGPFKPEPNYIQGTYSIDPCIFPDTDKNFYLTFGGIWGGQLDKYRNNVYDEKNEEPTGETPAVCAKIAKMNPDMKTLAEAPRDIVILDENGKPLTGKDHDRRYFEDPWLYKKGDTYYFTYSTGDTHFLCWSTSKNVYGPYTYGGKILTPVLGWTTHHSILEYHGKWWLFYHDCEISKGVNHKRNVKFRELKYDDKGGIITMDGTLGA

[2] = substrate: O=[N+]([O-])c1ccc(O[C@@H]2OC[C@@H](O)[C@H](O)[C@H]2O)cc1; test: purified protein; assay type: biochemical, Neocallimastix californiae; details: pH 6, 32 °C, no added metal

Row | Ki [1] | Molecule | Km [2] | Vmax [2] | kcat [2]
1 | 6.11 mM | OC1OC[C@@H](O)[C@H](O)[C@H]1O (stereo partly shown) [xylose] | – | – | –
2 | – | Xyl43Nc (Neocallimastix californiae) (protein, E. coli BL21 pLysS (DE3); HisTrap and Sephacryl S-200) MVTIEKRPLVTDTYTADPSAHVFNGKIYIYPSHDRDIETIDNDNGDQYDMKDYHVYEMDDENTLPRDCGKVLDIKDIPWVSKQLWAPDCVEKDGKYYFFYPARDKEGFFRIGVAIGDKPGGPFKPEPNYIQGTYSIDPCIFPDTDKNFYLTFGGIWGGQLDKYRNNVYDEKNEEPTGETPAVCAKIAKMNPDMKTLAEAPRDIVILDENGKPLTGKDHDRRYFEDPWLYKKGDTYYFTYSTGDTHFLCWSTSKNVYGPYTYGGKILTPVLGWTTHHSILEYHGKWWLFYHDCEISKGVNHKRNVKFRELKYDDKGGIITMDGTLGA | 720 µM | 47 µmol/min/mg | 29.3 s⁻¹
